Data published in patent US20050164929A1, “Methods of preventing and treating inflammatory bowel disease” (LUPINE LOGIC, INC., priority 2000, published 2005).
Where “and” joins values, the source holds several entries; their conditions need not be identical. Identical values can stand only once. Marks after values point to notes of the source that are not given here. Each block holds one compound with its values, some of them ahead of it. Residues, ends and D or L forms follow the SMILES beside them. *: point of attachment. Cbz = O=C(OCc1ccccc1)*

How the values were obtained:
[1] = test system: soluble FGF receptors (FGFRs); test: Receptor binding specificity: control growth factors with soluble FGFRs; type: cell-based; details: all soluble FGFRs under analysis
Procedure: NIH 3T3 cells were serum-starved, incubated with the indicated growth factor (square=PDGF-BB; triangle=aFGF; circle=FGF-CX) either alone or together with the indicated soluble FGFR, and analyzed by a BrdU incorporation assay. Experiments were performed in triplicate and are represented as the percent BrdU increase in incorporation of BrdU relative to cells receiving the growth factor alone.
To determine the receptor binding specificity of FGF-20, we examined the effect of soluble FGF receptors (FGFRs) on the induction of DNA synthesis in NIH 3T3 cells by recombinant FGF-20. Four receptors have been identified to date (Klint P and Claesson-Welsh L. Front. Biosci., 4: 165-177, 1999; Xu X, et al. Cell Tissue Res., 296: 33-43, 1999). Soluble receptors for FGFR1β(IIIc), FGFR2a(IIIb), FGFR2β(IIIb), FGFR2a(IIIc), FGFR3a(IIIc) and FGFR4 were utilized.

[2] = test system: NIH 3T3 murine embryonic fibroblast cells; test: BrdU incorporation bioassay of RP-HPLC peak fractions; type: cell-based, mouse; details: for PI200: concentration giving BrdU incorporation at 2 times the background, serum-starved NIH 3T3, 18 hours; for induction of DNA synthesis / activity in proliferation assays: BrdU incorporation
Procedure: The biological activity of CG53135-05 related species collected from the 4 peaks identified by LC and MS was measured by treatment of serum-starved cultured NIH 3T3 murine embryonic fibroblast cells with various doses of the isolated CG53135-05 related species and measurement of incorporation of bromodeoxyuridine (BrdU) during DNA synthesis. For this assay, cells were cultured in Dulbecco's modified Eagle's medium supplemented with 10% fetal bovine serum. Cells were grown in 96-well plates to confluence at 37° C. in 10% CO2/air and then starved in Dulbecco's modified Eagle's medium for 24-72 hours. CG53135-05-related species were added and incubated for 18 hours at 37° C. in 10% CO2/air. BrdU ([…]) was added and incubated with the cells for 2 hours at 37° C. in 10% CO2/air. Incorporation of BrdU was measured by enzyme-linked immunosorbent assay according to the manufacturer's specifications (Roche Molecular Biochemicals, Indianapolis, Ind.).
Peak 4 was not included in this assay since insufficient material was collected (Peak 4 is less than 3% of the total peak area for CG53135-05).

NIH 3T3 cells = test: BrdU incorporation, truncated vs full length FGF-20 conditioned medium; type: cell-based, mouse; details: 10 ng/mL
Procedure: NIH 3T3 mouse fibroblasts were serum-starved, incubated with the indicated factor for 18 hours, and analyzed by a BrdU incorporation assay.
A vector expressing amino acids 24-211 of FGF-20, referred to as CG53135-17 (SEQ ID NOs:31 and 32), was prepared. The incorporation of BrdU by NIH 3T3 cells treated with conditioned medium obtained using the vector incorporating this truncated form was compared to the incorporation in response to treatment with conditioned medium using a vector encoding full length FGF-20. This experiment was carried out as described above.

[3] = test system: COX-2 induction in Caco-2 cells; test: COX-2 induction by CG53135 in presence of proteosome inhibitor; type: cell-based, human
Procedure: FIG. 18. Effect of NFkB on activation of CG53135 and stimulation of COX-2 in intestinal epithelial cells. NFkB promoter activity was assayed in HT-29 and Caco2 cell lines in the presence of CG53135-01 E. coli purified product.
ITF promoter activity in HT-29 cells was assayed. […] Thus NF-kB may not have a role inducing COX-2 expression in the presence of CG53135.

[4] = Solubility of protein in formulation buffers; type: physicochemical; details: for Solubility of Process 2 protein, Arginine Sulfate vs Arginine Phosphate: Batches #K, #J
Procedure: Four unexpected properties of CG53135 were discovered and used to develop the new formulation: (1) high concentration of arginine, >0.4 M, increases the solubility to >30 mg/mL; (2) the use of sulfate salt of arginine increases the solubility by at least 2-6 folds; (3) the optimal concentration of sodium phosphate as a buffering salt is 50 mM, with a solubility of at least 1-2 fold increase in comparison with concentrations at 25, 75, and 100 mM; and (4) adding a surfactant during the diafiltration/ultrafiltration step minimizes the formation of aggregates. In development the lyophilized formulation, each component of the new formulation was evaluated for solubility individually. CG53135-05 was precipitated using the precipitate buffer (50 mM NaPi, 5 mM EDTA, 1 M L-Arginine HCl, 2.5 M (NH4)2SO4). The precipitate was washed with 25 mM sodium phosphate buffer at pH 6.5 to remove the residual arginine and ammonium sulfate. The following are examples of data.

[5] = Turbidity (aggregates) after ultrafiltration/diafiltration; type: physicochemical
Procedure: The experiment was conducted by performing the ultrafiltration/diafiltration at 2.5 mg/mL CG53135-05 in 0.2M arginine and 0.05 M sodium phosphate buffer at pH 7.0. After exchanging with 7 volumes of the final buffer (0.5M arginine and 0.05 M sodium phosphate buffer at pH 7.0), the diafiltrate is concentrated to ˜20 mg/mL. The diafiltrate is then diluted with the final buffer to ˜12.5 mg/mL and lyophilized. Polysorbate 80 is added either before or after the diafiltration to a final concentration of 0.01%.
All formulation contains 0.5 M arginine, 0.05 M sodium phosphate monobasic, and 0.01% polysorbate 80.

endothelial cells = test: Proliferation summary for variants; type: cell-based; details: in vitro
Procedure: (§1) Experiments were performed to evaluate the proliferative response of representative cell types to CG53135, e.g., a full-length tagged variant (CG53135-01), a deletion variant (CG53135-02), and a full-length codon-optimized untagged variant (CG53135-05).
(§2) CG53135-02 (batch 1 and 13) was also used in these experiments. Protein was expressed in E. coli, BLR (DE3) (Novagen), transformed with the deletion variant CG53135-02 inserted into a pET24a vector (Novagen). A research cell bank (RCB) was produced and cell paste containing CG53135-02 was produced by fermentation of cells originating from the RCB. Cell membranes were disrupted by high-pressure homogenization, and lysate was clarified by centrifugation. CG53135-02 was purified by ion exchange chromatography. The final protein fraction was dialyzed against the formulation buffer (100 mM citrate, 1 mM ethylenediaminetetraacetic acid (EDTA), and 1 M L-arginine).
(§3) CG53135-05, DEV10, which were also used in these experiments, was prepared by Cambrex Biosciences (Hopkinton, Mass.) according to Process 1 as described in Section 6.18.1, infra.
(§4) BrdU Incorporation: proliferative activity was measured by treatment of serum-starved cultured cells with a given agent and measurement of BrdU incorporation during DNA synthesis. Cells were cultured in respective manufacturer recommended basal growth medium supplemented with 10% fetal bovine serum or 10% calf serum as per manufacturer recommendations. Cells were grown in 96-well plates to confluence at 37° C. in 10% CO2/air (to subconfluence at 5% CO2 for dedifferentiated chondrocytes and NHOst). Cells were then starved in respective basal growth medium for 24-72 hours. CG53135 protein purified from E. coli or pCEP4/Sec or pCEP4/Sec-FGF 20× enriched conditioned medium was added (10 μL/100 μL of culture) for 18 hours. BrdU (10 μM final concentration) was then added and incubated with the cells for 5 hours. BrdU incorporation was assayed according to the manufacturer's specifications (Roche Molecular Biochemicals, Indianapolis, Ind.).
(§5) The above described experiments were also performed using CG53135-02 and CG53135-05 protein products, and the results are summarized in the Conclusion section below.

[6] = test system: mesenchymal and epithelial cells; test: Proliferation summary for variants; type: cell-based; details: in vitro
Procedure: as §1, §2, §3, §4, §5

Compound: PDGF-BB: control growth factor
effect of soluble receptor reagents on induction of DNA synthesis by control factor [1]: None of the soluble receptor reagents interfered

Compound: CG53135-05 (DEV 10): Process 1 reference standard of CG53135-05 E. coli purified product
PI200 [2]: 1.0 ng/mL

Compound: CG53135-17: CG53135-05 minus first 23 amino acids at the N-terminus (amino acids 24-211 of FGF-20)
activity (BrdU incorporation) at lowest concentration tested (NIH 3T3 cells): retains high activity

effect of soluble receptor reagents on induction of DNA synthesis by control factor [1]: inhibit the induction of DNA synthesis
Compound: aFGF: acidic FGF, a factor known to interact with all of the FGFRs under analysis

Compound: Peak 2: RP-HPLC peak at 27.3 min: CG53135-13 (residues 3-211)
induction of DNA synthesis / activity in proliferation assays [2]: dose-dependent manner | PI200 [2]: 11 ng/mL

Compound: CC(C)C[C@@H](C=O)NC(=O)[C@H](CC(C)C)NC(=O)[C@H](CC(C)C)NC(=O)OCc1ccccc1 [MG132] (Cbz-Leu-Leu-Leu-aldehyde)
block of COX-2 induction by CG53135 [3]: does not block COX-2 induction

Compound: Peak 3: RP-HPLC peak at 28.5 min: CG53135-05 (residues 1-211)
induction of DNA synthesis / activity in proliferation assays [2]: dose-dependent manner | PI200 [2]: 8.6 ng/mL

Compound: Process 2 protein: protein product (CG53135-05) produced by the improved production process, Process 2
Solubility of Process 2 protein ([4]; Arginine 0.05 M, Batches #1-#3): 0.7 mg/mL and 0.6 mg/mL and 0.5 mg/mL | Solubility of Process 2 protein ([4]; Arginine 0.15 M, Batches #1-#3): 2.2 mg/mL and 1.6 mg/mL | Solubility of Process 2 protein ([4]; Arginine 0.20 M, Batches #1-#3): 3.0 mg/mL and 4.7 mg/mL and 4.3 mg/mL | Solubility of Process 2 protein ([4]; Arginine 0.30 M, Batch #4): 5.8 mg/mL | Solubility of Process 2 protein ([4]; Arginine 0.35 M, Batch #4): 10.1 mg/mL | Solubility of Process 2 protein ([4]; Arginine 0.40 M, Batch #4): 9.8 mg/mL | Solubility of Process 2 protein ([4]; Arginine 0.45 M, Batch #4): 32.3 mg/mL | Solubility of Process 2 protein ([4]; Arginine 0.50 M, Batch #4 (not sufficient protein to be dissolved) and #5): 23.8* mg/mL and 37 mg/mL | Solubility of Process 2 protein, Arginine Sulfate vs Arginine Phosphate ([4]; first formulation line: 50 mM sodium phosphate monobasic and 0.15 M Arginine at pH 7): 4400 µg/mL and 2300 µg/mL | Solubility of Process 2 protein, Arginine Sulfate vs Arginine Phosphate ([4]; second formulation line: 50 mM sodium phosphate monobasic and 0.15 M Arginine at pH 7): 6500 µg/mL and 5200 µg/mL | Solubility of Process 2 protein ([4]; sodium phosphate monobasic 25 mM, 0.2 M arginine, Batches #A-#E): 4.01 mg/mL and 2.4 mg/mL and 2.6 mg/mL and 3.59 mg/mL | Solubility of Process 2 protein ([4]; sodium phosphate monobasic 50 mM, 0.2 M arginine, Batches #A-#E): 5.47 mg/mL and 4.7 mg/mL and 3.3 mg/mL and 4.3 mg/mL and 4.81 mg/mL | Solubility of Process 2 protein ([4]; sodium phosphate monobasic 75 mM, 0.2 M arginine, Batches #A-#E): 4.06 mg/mL and 2.5 mg/mL and 2.6 mg/mL and 3.0 mg/mL and 2.38 mg/mL | Solubility of Process 2 protein ([4]; sodium phosphate monobasic 100 mM, 0.2 M arginine, Batches #A-#E): 3.78 mg/mL and 2.8 mg/mL and 2.4 mg/mL and 2.9 mg/mL and 2.47 mg/mL | Turbidity ([5]; Polysorbate added during ultrafiltration/diafiltration: No, 13.0 mg/mL): 4.6 NTU | Turbidity ([5]; Polysorbate added during ultrafiltration/diafiltration: Yes, 12.5 mg/mL): 20.9 NTU

Compound: CG53135-02: Codon optimized, amino acids 2-54 of SEQ ID NO: 2 removed; SEQ ID NOs 3 and 4
proliferation of endothelial cells (endothelial cells): induces proliferation | proliferation of mesenchymal and epithelial cells [6]: induce proliferation
